US20230414778A1, “COMBINATION OF ANTIBODY-DRUG CONJUGATE WITH ANTI-SIRPalpha ANTIBODY” (DAIICHI SANKYO COMPANY, LIMITED, priority 2020, published 2023)
Values belong to the molecule of their own block, whether it stands above or below them.

What was measured:
[1] = target: SIRPγ (Homo sapiens, UniProt Q9P1W8); conditions: Patent References 1 to 3; cited from earlier work
[2] = target: SIRPβ1 (Homo sapiens, UniProt O00241); conditions: Patent References 1 to 3; cited from earlier work
[3] = test system: all 10 types of SIRPα variant; conditions: Patent References 1 to 3; cited from earlier work
[4] = test system: cancer cells; conditions: known from literature; cited from earlier work
[5] = target: SIRPα V1 (Homo sapiens, UniProt P78324); conditions: Patent References 1 to 3; cited from earlier work
[6] = target: T1, mouse SIRPα antigen (Mus musculus, UniProt P97797); assay: Binding affinity to mouse SIRPα antigen
T1 sequence (P97797 32-513): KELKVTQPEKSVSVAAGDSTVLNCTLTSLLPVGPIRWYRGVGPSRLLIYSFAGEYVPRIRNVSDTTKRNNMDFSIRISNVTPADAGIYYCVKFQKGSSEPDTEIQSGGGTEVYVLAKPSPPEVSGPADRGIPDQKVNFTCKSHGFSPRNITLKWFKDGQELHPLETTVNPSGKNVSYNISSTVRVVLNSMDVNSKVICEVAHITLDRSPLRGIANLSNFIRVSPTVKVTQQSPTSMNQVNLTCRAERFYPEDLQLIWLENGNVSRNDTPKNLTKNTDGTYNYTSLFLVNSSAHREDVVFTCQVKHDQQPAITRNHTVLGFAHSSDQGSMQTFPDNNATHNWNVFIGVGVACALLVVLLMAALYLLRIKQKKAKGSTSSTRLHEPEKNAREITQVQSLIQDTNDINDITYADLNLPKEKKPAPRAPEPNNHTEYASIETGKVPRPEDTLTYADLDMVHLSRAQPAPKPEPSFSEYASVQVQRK
Protocol: The lymph node cells and mouse myeloma SP2/0-ag14 cells (ATCC: CRL-1581) were fused in accordance with a polyethylene glycol method. The fused cells were suspended in HAT selective medium and cultured in accordance with the limiting dilution method. The hybridoma colonies that emerged were collected. In this manner, monoclonal hybridomas were prepared. The collected hybridoma colonies were cultured. Using the resultant hybridoma culture supernatant, an antibody-producing hybridoma was screened based on binding activity to a mouse SIRPα protein as an index. In this manner, clone: 5C12 was screened.

[7] = test system: 4T1-hmHER2 cells; assay: Antitumor study (1); format: in vivo, BALB/c mice; conditions: single administration, 10 mg/kg, Day 21
Protocol: Individuals having a tumor volume of beyond 3000 mm^3 were humanly killed from an ethical point of view for animal experiments.
The antibody-drug conjugate (1) (Drug-to-Antibody Ratio: 7.6) was diluted with PBS, and a dose of 10 mL/kg was intravenously administered to the tail vein.
To mouse breast cancer cell line 4T1 (CRL-2539) purchased from the American Type Culture Collection, a human/mouse chimera HER2 gene was transfected by use of a lentivirus vector to prepare 4T1-hmHER2 cells, which were put in use. The cells express a human/mouse chimera HER2 protein on the cell membrane. Then, 4T1-hmHER2 cells were suspended in PBS and 1.0×10^6 cells were subcutaneously inoculated into the right axilla of each of the BALB/c mice (Day 0). Four days later, the mice were randomly grouped (Day 4). The antibody-drug conjugate (1) was intravenously administered at a dose of 10 mg/kg on Day 4 and 11 (two times in total) to the tail vein. […] P value was expressed to four decimal places and the results satisfying P<0.05 (two-sided test) were determined as being significant.

[8] = test system: CT26.WT-hTROP2 cells; assay: Antitumor study (2); format: in vivo, BALB/c mice; conditions: single administration, 10 mg/kg, Day 18
Protocol: Mouse: Female 6-week-old BALB/c mice (BALB/c AnNCrlCrlj) (bred by CHARLES RIVER LABORATORIES JAPAN, INC.) were subjected to experiments. Measurement and calculation formula: the long diameter and short diameter of tumors were measured twice a week with an electronic digital caliper (CD15-CX, manufactured by Mitutoyo Corporation), and the tumor volumes (mm^3) were calculated. The calculation formula is shown below: […] Individuals having a tumor volume of beyond 3000 mm^3 were humanely killed from an ethical point of view for animal experiments. […] An anti-SIRPα antibody (clone: 5C12) was diluted with PBS, and a dose of 10 mL/kg was intraperitoneally administered. […] The cells express a human TROP2 protein on the cell membrane. CT26.WT-hTROP2 cells were suspended in saline, and 2.0×10^6 cells were subcutaneously inoculated into the right axilla of each of the BALB/c mice (Day 0). Seven days later, the mice were randomly grouped (Day 7). […] The anti-SIRPα antibody (clone: 5C12) was intraperitoneally administered at a dose of 10 mg/kg on Day 8, 11 and 13 (three times in total). […] Measurement of the tumor volume was continued until Day 18. […] P value was expressed to four decimal places and the results satisfying P<0.05 (two-sided test) were determined as being significant.

[9] = test system: CT26.WT-HER3 cells; assay: Antitumor study (3); format: in vivo, BALB/c mice; conditions: single administration, 10 mg/kg, Day 18
Protocol: Mouse: Female 6-week-old BALB/c mice (BALB/c AnNCrlCrlj) (bred by CHARLES RIVER LABORATORIES JAPAN, INC.) were subjected to experiments.
Measurement and calculation formula: the long diameter and short diameter of tumors were measured twice a week with an electronic digital caliper (CD15-CX, manufactured by Mitutoyo Corporation), and the tumor volumes (mm^3) were calculated. The calculation formula is shown below:
Tumor volume (mm^3)=0.5×Long diameter (mm)×[Short diameter (mm)]^2
Individuals having a tumor volume of beyond 3000 mm^3 were humanely killed from an ethical point of view for animal experiments.
The antibody-drug conjugate (3) (Drug-to-Antibody Ratio: 8) and an anti-SIRPα antibody (clone: 5C12) were diluted with PBS, and used for administration.
To mouse colorectal cancer cell line CT26.WT (CRL2638) purchased from the American Type Culture Collection, a human HER3 gene was transfected by use of a lentivirus vector to prepare CT26.WT-HER3 cells, which were put in use. The cells express a human HER3 protein on the cell membrane. CT26.WT-HER3 cells were suspended in saline, and 2.0×10^6 cells were subcutaneously inoculated into the right axilla of each of the BALB/c mice (Day 0). Seven days later, the mice were randomly grouped (Day 7). […] P value was expressed to four decimal places and the results satisfying P<0.05 (two-sided test) were determined as being significant.

SIRPγ, sequence (Q9P1W8 29-387): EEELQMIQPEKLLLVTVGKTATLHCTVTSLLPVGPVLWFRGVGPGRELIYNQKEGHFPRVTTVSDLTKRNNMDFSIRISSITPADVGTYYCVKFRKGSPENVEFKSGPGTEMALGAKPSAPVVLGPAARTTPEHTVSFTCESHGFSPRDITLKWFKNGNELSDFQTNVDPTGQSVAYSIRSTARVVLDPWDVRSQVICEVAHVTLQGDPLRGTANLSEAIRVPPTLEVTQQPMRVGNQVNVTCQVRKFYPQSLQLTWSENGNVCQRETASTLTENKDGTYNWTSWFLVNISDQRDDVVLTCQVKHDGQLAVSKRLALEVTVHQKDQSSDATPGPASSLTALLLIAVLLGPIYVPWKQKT
SIRPβ1, sequence (O00241 30-398): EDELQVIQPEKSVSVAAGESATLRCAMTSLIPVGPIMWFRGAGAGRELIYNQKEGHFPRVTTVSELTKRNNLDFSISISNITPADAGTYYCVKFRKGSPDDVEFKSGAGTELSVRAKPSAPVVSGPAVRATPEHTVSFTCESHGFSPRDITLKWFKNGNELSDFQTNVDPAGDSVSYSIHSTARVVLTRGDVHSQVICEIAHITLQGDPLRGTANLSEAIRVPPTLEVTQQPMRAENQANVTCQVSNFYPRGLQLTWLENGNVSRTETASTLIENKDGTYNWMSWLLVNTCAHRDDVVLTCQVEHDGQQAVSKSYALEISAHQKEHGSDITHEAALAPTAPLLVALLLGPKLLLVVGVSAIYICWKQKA

Molecule: KWAR23: anti-SIRPα antibody of WO 2018/026600, SEQ ID NO: 26 and 27
binding to SIRPγ [1]: binds
binding to SIRPβ1 [2]: binds
binding to all 10 types of SIRPα variant [3]: binds

Molecule: O=P1(N(CCCl)CCCl)NCCCO1 (stereo not shown) [Cyclophosphamide]
ICD induction [4]: inducing ICD

Molecule: OSE-172: anti-SIRPα IgG4Pro antibody of WO 2017/178653, SEQ ID NO: 24 and 25
binding to SIRPβ1 [2]: binds
binding to SIRPα V1 [5]: binds

Molecule: ADU-1805: anti-SIRPα IgG2 antibody of WO 2018/190719, SEQ ID NO: 28 and 29
binding to SIRPγ [1]: binds
binding to all 10 types of SIRPα variant [3]: binds

Molecule: CC(=O)O[C@@]12CO[C@@H]1C[C@H](O)[C@@]1(C)C(=O)[C@H](O)C3=C(C)[C@@H](OC(=O)[C@H](O)[C@@H](NC(=O)OC(C)(C)C)c4ccccc4)C[C@@](O)([C@@H](OC(=O)c4ccccc4)[C@H]21)C3(C)C [Docetaxel]
ICD induction [4]: not confirmed to induce ICD

Molecule: O=C1[O][Pt]2([NH][C@@H]3CCCC[C@H]3[NH]2)[O]C1=O [Oxaliplatin]
ICD induction [4]: inducing ICD

Molecule: CO[C@@]12[C@H](COC(N)=O)C3=C(C(=O)C(C)=C(N)C3=O)N1C[C@@H]1N[C@@H]12 [Mitomycin C]
ICD induction [4]: not confirmed to induce ICD

binding affinity to mouse SIRPα antigen compared with that of hD13_H1L3 to a human SIRPα antigen [6]: at the same level
binding affinity to the mouse SIRPα antigen [6]: high binding affinity
B1: 5C12: rat-derived anti-mouse SIRPα surrogate antibody, heavy and light chain SEQ ID NOs: 30 and 31 (antibody, listed as Mus musculus)
heavy: MKHLWFFLLLVAAPRWVLSEVQLVESGGGLVQPGGSLKLSCAASGFTFSNYDMAWVRQAPTKGLEWVASISTRGGSSYYRDSVKGRFTVSRDNAKSTLYLQMDSLRSEDTATYYCARHPGDYFDYWGQGVMVTVSSAKTTPPSVYPLAPGSAAQTNSMVTLGCLVKGYFPEPVTVTWNSGSLSSGVHTFPAVLQSDLYTLSSSVTVPSSTWPSETVTCNVAHPASSTKVDKKIVPRDCGCKPCICTVPEVSSVFIFPPKPKDVLTITLTPKVTCVVVAISKDDPEVQFSWFVDDVEVHTAQTQPREEQFNSTFRSVSELPIMHQDWLNGKEFKCRVNSAAFPAPIEKTISKTKGRPKAPQVYTIPPPKEQMAKDKVSLTCMITDFFPEDITVEWQWNGQPAENYKNTQPIMDTDGSYFVYSKLNVQKSNWEAGNTFTCSVLHEGLHNHHTEKSLSHSPGK
light: MVLQTQVFISLLLWISGAYGDTVLTQSPALAVSPGERVTISCRASESVSTLIHWYQQKPGQQPKLLIYLTSHLESGVPARFSGSGSGTDFTLTIDPVEADDTATYYCQQSWTHPWTFGGGTKLELKRADAAPTVSIFPPSSEQLTSGGASVVCFLNNFYPKDINVKWKIDGSERQNGVLNSWTDQDSKDSTYSMSSTLTLTKDEYERHNSYTCEATHKTSTSPIVKSFNRNEC
antitumor effect (tumor volume) compared to the control group [7]: significantly stronger antitumor effect
antitumor effect (tumor volume) compared to the control group [8]: partial antitumor effect
antitumor effect (tumor volume) compared to the control group [9]: no therapeutic effect
